{"source": "paper PMC8715002", "about": "“Biochemical and Structural Characterization of a Novel Bacterial Tannase From Lachnospiraceae bacterium in Ruminant Gastrointestinal Tract” (Frontiers in Bioengineering and Biotechnology, 2021)", "assay_in_all_cases": "purified protein", "assay_type_in_all_cases": "biochemical, Lachnospiraceae bacterium", "settings_in_all_cases": "pH 7.0, 50 °C, 0.2–5 mM substrate", "key": {"[1]": {"system": "T1, CCCCCCCCCCCCOC(=O)c1cc(O)c(O)c(O)c1", "T1 construct": "about 68 kDa, monomer; catalytic Ser205/Asp582/His614; forward primer reads MSQSTATR; signal peptide not discussed"}, "[2]": {"system": "T2, CCCOC(=O)c1cc(O)c(O)c(O)c1", "T2 construct": "about 68 kDa, monomer; catalytic Ser205/Asp582/His614; forward primer reads MSQSTATR; signal peptide not discussed"}, "[3]": {"system": "T3, CCOC(=O)c1cc(O)c(O)c(O)c1", "T3 construct": "about 68 kDa, monomer; catalytic Ser205/Asp582/His614; forward primer reads MSQSTATR; signal peptide not discussed"}, "COC(=O)c1cc(O)c(O)c(O)c1": {"system": "T4, COC(=O)c1cc(O)c(O)c(O)c1", "T4 construct": "about 68 kDa, monomer; catalytic Ser205/Asp582/His614; forward primer reads MSQSTATR; signal peptide not discussed"}}}
{"substance": "TanALb (tannase from Lachnospiraceae bacterium) (Lachnospiraceae bacterium)", "values": [{"measurement": "Km", "setting": "[1]", "value": "1800 ± 260", "unit": "µM"}, {"measurement": "kcat", "setting": "[1]", "value": "24.6 ± 5.2", "unit": "s⁻¹"}, {"measurement": "kcat/Km", "setting": "[1]", "value": "15300 ± 2100", "unit": "M⁻¹ s⁻¹"}, {"measurement": "Km", "setting": "[2]", "value": "2000 ± 220", "unit": "µM"}, {"measurement": "kcat", "setting": "[2]", "value": "44.2 ± 3.6", "unit": "s⁻¹"}, {"measurement": "kcat/Km", "setting": "[2]", "value": "24500 ± 4000", "unit": "M⁻¹ s⁻¹"}, {"measurement": "Km", "setting": "[3]", "value": "2600 ± 190", "unit": "µM"}, {"measurement": "kcat", "setting": "[3]", "value": "78.8 ± 10.4", "unit": "s⁻¹"}, {"measurement": "kcat/Km", "setting": "[3]", "value": "33300 ± 7300", "unit": "M⁻¹ s⁻¹"}, {"measurement": "Km", "setting": "COC(=O)c1cc(O)c(O)c(O)c1", "value": "2800 ± 350", "unit": "µM"}, {"measurement": "kcat", "setting": "COC(=O)c1cc(O)c(O)c(O)c1", "value": "82.5 ± 6.3", "unit": "s⁻¹"}, {"measurement": "kcat/Km", "setting": "COC(=O)c1cc(O)c(O)c(O)c1", "value": "36400 ± 4400", "unit": "M⁻¹ s⁻¹"}]}
